This is an account of results in patent US7648964B2, “Use of lacritin in promoting ocular cell survival” (University of Virginia Patent Foundation, priority 2004, dated 2010).

The subject of one assay is caspase-8. The assay can be described thus: Caspase-8 activity in human corneal epithelial cells treated with TNF-α. The assay is classed as cell-based. As to the method:
FIG. 12 graphically illustrates the ability of lacritin polypeptides to block TNFα induced caspase-8 activity in human corneal epithelial cells. The ordinate represents relative fluorescence units. White bars indicate 1 hour and diagonally-hatched bars indicate 6 hours.
Lacritin-induced proliferation and calcium signaling was studied in the human corneal epithelial (HCE) cell line. HCE cells were grown at 37° C. in DMEM F/12 supplemented with 10% FBS and 50 μg/ml gentamicin. Each experiment was done in a dose- and time-dependent manner using TNF-α (5-20 ng/ml) and lacritin (1-10 nM). Cell viability was measured spectrophotometrically at an absorbance of 570 nm using the MTT assay. Caspase-8 activity was detected fluorometrically by measuring cleavage of the fluorogenic substrate IETD-pNA at an excitation wavelength of 405 nm. Lacritin-induced cell proliferation was studied by H3-thymidine incorporation and via fluorescence-based detection of PKC, PLC and cAMP. Calcium signaling was detected by confocal microscopy of Fluo-4 loaded cells.

The test system of assay [1] is human salivary ductal (HSG) cells. The assay can be described thus: 3H-thymidine uptake mitogenesis assay. It is filed as cell-based. The procedure:
For phosphotyrosine blotting and mitogenesis assays, cells in serum-containing media were seeded overnight in 24-well plates at a density of 0.5×10^5 cells/mm^2 corresponding to 20-30% confluency after cell attachment, incubated in serum-free media without supplements for 24 h (phosphotyrosine) or washed with serum-free media without supplements three times (mitogenesis) and incubated with lacritin (1-1000 nM), or positive controls EGF (1.6 nM) and 10% fetal bovine serum, or negative controls bovine serum albumin or no additive in serum-free media without supplements for the indicated times (phosphotyrosine) or 30 h (mitogenesis). For phosphotyrosine assays, cells were extracted in 1% NP40 containing sodium vanadate (2 mg/ml), DTT (5 mg/ml), protease inhibitors, 50 mM HEPES, 100 mM NaCl, and 2 mM EDTA; then separated by 10% SDS PAGE, transferred and blotted. The following antibodies (Cell Signaling Technology, Beverly Mass.) were tested: antiphosphotyrosine antibody (P-Tyr-100), anti-phospho-PKC αβII, anti-PKCα, anti-phospho-PKCδ, anti-phospho-PKC (pan), anti-p44/42 MAPK, anti-phospho-Raf, anti-phospho-SAPK/JNK, anti-phospho-p38 Map kinase, anti-phospho-Raf, anti-phospho-Akt, anti-phospho-CaMKII, anti-phospho-MARCKS, or anti-tubulin (loading control). After washing, bound antibodies were detected with peroxidase-labeled secondary antibody and ECL. With the exception of at least nine proteins in the P-Tyr-100 blot (FIG. 1), none of the effectors tested above appeared to be phospho-activated during lacritin signaling (not shown). For mitogenesis (Hussaini et al., '00), [^3H]-thymidine (2 mCi/ml) was added for the next 6 h. Incorporation was stopped with ice-cold phosphate buffered saline and followed by addition of cold and then room temperature trichloracetic acid (10%) for 10 min each, washing of cells with phosphate buffered saline, solubilization with 1 N sodium hydroxide, neutralization with 1 N hydrochloric acid, addition of scintillation fluid and then quantitation in a scintillation counter. To deplete PKCα in HSG cells, a pool of four PKCα-specific siRNAs (100 nM) were transfected via LipofectAMINE 2000 in Opti-MEMI Reduced Serum Medium (Invitrogen, Grand Island N.Y.) without serum and antibiotics according to manufacturer's instructions. Each of the four siRNAs was also individually transfected. In negative controls, cells were transfected with a pool of four lamin-specific siRNAs (Upstate LLC, Charlottesville Va.; Dharmacon Inc, Lafayette Colo.). Seventy-two hours post-transfection, mitogenesis was assessed by co-addition of 10 […] lacritin and [^3H]-thymidine (2 mCi/ml) (Amersham, Piscataway N.J.) for 24 hrs. PKCα depletion was confirmed by Western blotting.

Another assay addresses T1, syndecan-1 (Homo sapiens, UniProt P18827).
T1 construct: expressed in transfected cells; host or cells: HEK293 (syndecan-1); E. coli ER2566 (lacritin-intein)
T1 sequence (P18827 23-310): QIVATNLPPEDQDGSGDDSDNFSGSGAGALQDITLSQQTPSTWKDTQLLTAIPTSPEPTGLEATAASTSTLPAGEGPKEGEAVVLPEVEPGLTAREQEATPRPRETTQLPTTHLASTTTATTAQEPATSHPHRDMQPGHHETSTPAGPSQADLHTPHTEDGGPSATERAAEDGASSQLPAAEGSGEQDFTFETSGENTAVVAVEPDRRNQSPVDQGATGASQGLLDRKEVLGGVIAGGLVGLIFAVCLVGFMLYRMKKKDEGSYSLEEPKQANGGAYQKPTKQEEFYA
The assay can be described thus: Competitive binding assay of lacritin-syndecan-1 binding. As to conditions: competitive binding assays. An excerpt: Biotinylated cell surface proteins were applied to lacritin affinity columns. After washing extensively in physiological salt-containing buffer, bound protein was eluted with 1 M NaCl, and identified with avidin-peroxidase using an ECL blot method. In controls, columns lacking lacritin were used. […] 293T cells stably transfected with human syndecan-2 or −4 were kindly provided by Dr. Atsushi Utani (Chiba University). A series of lacritin C-terminal and N-terminal deletion mutants were generated. Pull down binding assays involved incubation of intein-tagged lacritin or intein deletion mutants with lysates of untransfected or transfected cells followed by precipitation and SDS PAGE. Immunolocalization of syndecan-1 in human lacrimal glands was performed using anti-human syndecan-1 antibody (CD138).
The first of approximately four bands repeatedly eluted from lacritin affinity column was determined by sequencing to be syndecan-1. In pull-down assays, lacritin bound mammalian syndecan-1, but not syndecan-2 or 4. The binding appeared to be independent of heparan sulfate side chains, in keeping with lack of lacritin binding to heparin (previously known). Deletion of lacritin's C-terminal 25 but not N-terminal 5, 10, or 24 amino acids eliminated binding. […] Syndecan-1 was detected in ‘near apical’ and basolateral plasma membranes in human lacrimal gland.

On to `Cn1c2ccccc2c2c3c(c4c5ccccc5n(CCC#N)c4c21)CNC3=O` [Go 6976], for which the “effect on TNF-α-induced caspase-8 activity” value (from here on “effect”) in the assay with caspase-8 is given as “fail to block”.

B1: N-24: deletion mutant comprising a deletion of the 24 amino terminal amino acids of lacritin (protein)
chain: DSTGADPAQEAGTSKPNEEISGPAEPASPPETTTTAQETSAAAVQGTAKVTSSRQELNPLKSIVEKSILLTEQALAKAGKGMHGGVPGGKQFIENGSEFAQKLLKKFSLLKPWA
modifications: homo sapiens
notes: deletion mutant comprising a deletion of the 24 amino terminal amino acids of lacritin
On to B1, for which the “mitogenic activity of deletion constructs” value in assay [1] (10 nM, compared to intact lacritin) was “active”. For the same molecule, the inhibition of binding entry with syndecan-1 is on record as “inhibited binding”. For the same molecule, in the assay on caspase-8, the “effect” value was “blocked”.

B2: lacritin: recombinant human lacritin from E. coli; mature 119 residue fragment (SEQ ID NO:10) of native lacritin SEQ ID NO:4 (protein, listed as Homo sapiens)
chain: EDASSDSTGADPAQEAGTSKPNEEISGPAEPASPPETTTTAQETSAAAVQGTAKVTSSRQELNPLKSIVEKSILLTEQALAKAGKGMHGGVPGGKQFIENGSEFAQKLLKKFSLLKPWA
Take B2: the “proliferation in nominally calcium-free medium” value in assay [1] is recorded as “proliferated in a bell-shaped lacritin dose-dependent manner”. In addition, the “time to detectable 3H-thymidine uptake” value in assay [1] (not shown) is on record as “Within two hours”. Besides, the “level of proliferation at optimal dose” value in assay [1] (vs 10% FBS positive control) is on record as “matching the FBS positive control”. The inhibition of binding entry with syndecan-1 was “inhibited binding”. The “effect” value in the assay on caspase-8 is “completely blocked”.
